These results are taken from PMC4755828 (Nature chemical biology, 2016).

One data set in a line: Mouse pharmacokinetics. Format: in vivo. As to conditions: male swiss albino mice.
The next data set concerns HEK293T cells. Put plainly: CellTiter-Glo cell viability assay. Format: cell-based. As to conditions: up to 100 μM, 48 hours. (In general: Cellular ATP, detected with luciferase, serves as a proxy for viable cell number.)
Data set [1] can be described thus: Intracellular concentration by LC-MS/MS. Format: in vitro ADME. As to conditions: human, PC3 cells.
For data set [2], the system named is PC3 cells. The data set is described as follows: Intracellular concentration by LC-MS/MS. Format: in vitro ADME.
Data set [3] has as its system PC3 cells. The data set is described as follows: CellTiter-Glo cell viability assay. As to conditions: up to 100 μM, 48 hours. Format: cell-based.
The next data set has as its system CBX7. As to conditions: cited from earlier work.
The target of data set [4] is CBX7 chromodomain (residues 8-62), C-terminal His-tag (UniProt O95931). The data set is described as follows: ITC. In general terms: ITC needs no label: the signal is the heat of the interaction.
Data set [5] concerns the target CBX8 chromodomain (residues 8-61), N-terminal His-tag (UniProt Q9HC52). The data set is described as follows: ITC.
Data set [6] concerns the target CBX4 chromodomain (residues 8-65), N-terminal His-tag (UniProt O00257). Put plainly: ITC.
The target in data set [7] is CBX2 chromodomain (residues 9-66) (UniProt Q14781). Put plainly: ITC.
Data set [8] deals with CBX6 chromodomain (residues 8-65) (UniProt O95503). Put plainly: ITC.
For data set [9], the target named is CDYL1b chromodomain (residues 1-78) (UniProt Q9Y232). The data set is described as follows: ITC.
For data set [10], the target named is CDYL2 chromodomain (residues 1-75) (UniProt Q8N8U2). The data set is described as follows: ITC.
Data set [11] addresses CDY1 chromodomain (residues 1-101) (UniProt Q9Y6F8). Put plainly: ITC.
Data set [12] deals with CBX7 (AlphaScreen construct). Put plainly: AlphaScreen or HTRF. For orientation: Alpha assays give light when donor and acceptor beads are brought close together.

Square brackets hold non-standard residues; d marks the D form. Ends that are not written are not given here. Peptide text beside a SMILES is read from it. * marks the point of attachment. Benzoyl(4-tBu) = CC(C)(C)c1ccc(C(=O)*)cc1; Lys(Me3) = C[N+](C)(C)CCCC[C@H](N)C(=O)O; Lys(Et2) = CCN(CC)CCCC[C@H](N)C(=O)O

Sequence of CBX7 chromodomain (residues 8-62), C-terminal His-tag (O95931 8-62): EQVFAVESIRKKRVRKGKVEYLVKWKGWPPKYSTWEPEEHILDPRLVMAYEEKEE
Sequence of CDY1 chromodomain (residues 1-101) (Q9Y6F8 1-101): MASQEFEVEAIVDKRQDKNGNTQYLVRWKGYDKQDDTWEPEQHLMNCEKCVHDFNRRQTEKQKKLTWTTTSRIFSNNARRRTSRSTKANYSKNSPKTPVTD
Sequence of CBX6 chromodomain (residues 8-65) (O95503 8-65): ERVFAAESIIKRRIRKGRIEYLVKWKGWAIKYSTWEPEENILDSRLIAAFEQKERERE
Sequence of CDYL2 chromodomain (residues 1-75) (Q8N8U2 1-75): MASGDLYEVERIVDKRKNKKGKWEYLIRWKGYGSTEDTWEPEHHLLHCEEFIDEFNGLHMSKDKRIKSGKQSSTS
Sequence of CBX8 chromodomain (residues 8-61), N-terminal His-tag (Q9HC52 8-61): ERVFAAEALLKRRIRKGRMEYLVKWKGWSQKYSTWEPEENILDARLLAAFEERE
Sequence of CBX2 chromodomain (residues 9-66) (Q14781 9-66): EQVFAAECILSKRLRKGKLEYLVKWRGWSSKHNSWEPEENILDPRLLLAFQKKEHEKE

As to `CCN(CC)CCCC[C@H](NC(=O)[C@H](CC(C)C)NC(=O)[C@H](C)NC(=O)[C@H](Cc1ccccc1)NC(=O)c1ccc(C(C)(C)C)cc1)C(=O)N[C@@H](CO)C(=O)OC` [UNC3866] ({Benzoyl(4-tBu)}-FAL[Lys(Et2)]S-OMe), the “clearance (in words)” value in the data set “Mouse pharmacokinetics” is “moderate”. Moreover, the “toxicity in HEK293T cells” value in the data set with HEK293T cells is given as “no toxic effects”. For the same compound, the EC50 in data set [1] worked out at 340 nM. Also, the intracellular concentration with PC3 cells [2] (PC3 cells treated with 30 μM UNC3866 for 24 hrs, LC-MS/MS) is 1.4 ± 0.3 µM. Further, in the data set with PC3 cells [2] (PC3 cells, 30 μM UNC3866, 24 hours), the “intracellular concentration as % of the extracellular concentration” value was roughly 5%. In the data set on PC3 cells [3], the “toxicity in PC3 cells” value is given as “no toxic effects”.
With RGFAL[Lys(Me3)]STHG, the “affinity for CBX7 relative to the corresponding H3K27me3 peptide” value in the data set with CBX7 is on record as 22 fold. Also, on CBX7 (read-out: CBX7 Kd), the Kd is 5000 nM.
UNC3567 (peptide): in [4], the dissociation constant Kd is 6700 nM.
Regarding UNC3866 (peptide), the Kd in data set [5] was 1200 nM; in data set [6], 94 nM; in [4], 97 nM; in data set [7] it was 1800 nM; in [8] it was 610 nM; in data set [9], 910 nM. For the same compound, the Kd worked out at 850 nM in [10] and 6300 nM in [11]. The same compound showed an IC50 in [12] of 66 nM.
In the case of UNC4195 (peptide), in data set [4], the Kd is 220 nM.

As a reminder, the EC50 is the concentration that produces a half-maximal response. A lower EC50 goes with a more potent agent. Broadly, the Kd is a measure of binding affinity in units of concentration. Broadly, the IC50 is the midpoint of a concentration-inhibition curve. A low value points to inhibition by little substance.
